{"source": "paper PMC8298264", "about": "“Function of cofactor Akirin2 in the regulation of gene expression in model human neutrophil-like HL60 cells” (Bioscience Reports, 2021)"}
{"tested_on": "human HL60 cells", "assay": "SWATH-MS proteomics, differential protein representation, akirin2 KO vs WT HL60 cells", "format": "cell-based", "details": "SWATH-MS, akirin2 KO vs WT HL60 cells; over-represented in KO", "summary_of_the_method": "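Three biological replicates per genotype; 150 µg protein FASP/trypsin digested; IDA library (3 µg digest); SWATH variable windows, 5 µg/sample, 3.6 s cycle; gradient 5–30% B 120 min then 30–60% B 15 min; 1% global FDR; TAS normalization.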"}
{"molecule": "PML-RARA-regulated adapter molecule 1 (protein, UniProt Q96QH2 1-670, looked up) PML-RARA-regulated adapter …: MAHHLPAAMESHQDFRSIKAKFQASQPEPSDLPKKPPKPEFGKLKKFSQPELSEHPKKAPLPEFGAVSLKPPPPEVTDLPKKPPPPEVTDLPKKPPPPEVTDLPKKPPPPEVTDLPKKPSKLELSDLSKKFPQLGATPFPRKPLQPEVGEAPLKASLPEPGAPARKPLQPDELSHPARPPSEPKSGAFPRKLWQPEAGEATPRSPQPELSTFPKKPAQPEFNVYPKKPPQPQVGGLPKKSVPQPEFSEAAQTPLWKPQSSEPKRDSSAFPKKASQPPLSDFPKKPPQPELGDLTRTSSEPEVSVLPKRPRPAEFKALSKKPPQPELGGLPRTSSEPEFNSLPRKLLQPERRGPPRKFSQPEPSAVLKRHPQPEFFGDLPRKPPLPSSASESSLPAAVAGFSSRHPLSPGFGAAGTPRWRSGGLVHSGGARPGLRPSHPPRRRPLPPASSLGHPPAKPPLPPGPVDMQSFRRPSAASIDLRRTRSAAGLHFQDRQPEDIPQVPDEIYELYDDVEPRDDSSPSPKGRDEAPSVQQAARRPPQDPALRKEKDPQPQQLPPMDPKLLKQLRKAEKAEREFRKKFKFEGEIVVHTKMMIDPNAKTRRGGGKHLGIRRGEILEVIEFTSNEEMLCRDPKGKYGYVPRTALLPLETEVYDDVDFCDPLENQPLPLGR", "Fold Change": 2.265, "Log (Fold Change)": 0.355}
{"molecule": "Alpha-2-HS-glycoprotein (protein, UniProt P02765 19-300; P02765 341-367, looked up) Alpha-2-HS-glycoprotein chain … 1: APHGPGLIYRQPNCDDPETEEAALVAIDYINQNLPWGYKHTLNQIDEVKVWPQQPSGELFEIEIDTLETTCHVLDPTPVARCSVRQLKEHAVEGDCDFQLLKLDGKFSVVYAKCDSSPDSAEDVRKVCQDCPLLAPLNDTRVVHAAKAALAAFNAQNNGSNFQLEEISRAQLVPLPPSTYVEFTVSGTDCVAKEATEAAKCNLLAEKQYGFCKATLSEKLGGAEVAVTCMVFQTQPVSSQPQPEGANEAVPTPVVDPDAPPSPPLGAPGLPPAGSPPDSHVL Alpha-2-HS-glycoprotein chain … 2: TVVQPSVGAAAGPVVPPCPGRIRHFKV", "Fold Change": 2.248, "Log (Fold Change)": 0.3517}
{"molecule": "Resistin (protein, UniProt Q9HD89 19-108, looked up) Resistin: KTLCSMEEAINERIQEVAGSLIFRAISSIGLECQSVTSRGDLATCPRGFAVTGCTCGSACGSWDVRAETTCHCQCAGMDWTGARCCRVQP", "Fold Change": 1.774, "Log (Fold Change)": 0.2489}
{"molecule": "OCIA domain-containing protein 1 (protein, UniProt Q9NX40 1-245, looked up) OCIA domain-containing …: MNGRADFREPNAEVPRPIPHIGPDYIPTEEERRVFAECNDESFWFRSVPLAATSMLITQGLISKGILSSHPKYGSIPKLILACIMGYFAGKLSYVKTCQEKFKKLENSPLGEALRSGQARRSSPPGHYYQKSKYDSSVSGQSSFVTSPAADNIEMLPHYEPIPFSSSMNESAPTGITDHIVQGPDPNLEESPKRKNITYEELRNKNRESYEVSLTQKTDPSVRPMHERVPKKEVKVNKYGDTWDE", "Fold Change": 1.964, "Log (Fold Change)": 0.2932}
{"molecule": "Intraflagellar transport protein 25 homolog (protein, UniProt Q9Y547 1-144, looked up) Intraflagellar transport …: MRKIDLCLSSEGSEVILATSSDEKHPPENIIDGNPETFWTTTGMFPQEFIICFHKHVRIERLVIQSYFVQTLKIEKSTSKEPVDFEQWIEKDLVHTEGQLQNEEIVAHDGSATYLRFIIVSAFDHFASVHSVSAEGTVVSNLSS", "Fold Change": 2.042, "Log (Fold Change)": 0.31}
{"molecule": "Bone marrow proteoglycan (protein, UniProt P13727 17-222, looked up) Bone marrow proteoglycan: LHLRSETSTFETPLGAKTLPEDEETPEQEMEETPCRELEEEEEWGSGSEDASKKDGAVESISVPDMVDKNLTCPEEEDTVKVVGIPGCQTCRYLLVRSLQTFSQAWFTCRRCYRGNLVSIHNFNINYRIQCSVSALNQGQVWIGGRITGSGRCRRFQWVDGSRWNFAYWAAHQPWSRGGHCVALCTRGGHWRRAHCLRRLPFICSY", "Fold Change": 6.406, "Log (Fold Change)": 0.8066}
{"molecule": "Serpin B8 (protein, UniProt P50452 1-374, looked up) Serpin B8: MDDLCEANGTFAISLFKILGEEDNSRNVFFSPMSISSALAMVFMGAKGSTAAQMSQALCLYKDGDIHRGFQSLLSEVNRTGTQYLLRTANRLFGEKTCDFLPDFKEYCQKFYQAELEELSFAEDTEECRKHINDWVAEKTEGKISEVLDAGTVDPLTKLVLVNAIYFKGKWNEQFDRKYTRGMLFKTNEEKKTVQMMFKEAKFKMGYADEVHTQVLELPYVEEELSMVILLPDDNTDLAVVEKALTYEKFKAWTNSEKLTKSKVQVFLPRLKLEESYDLEPFLRRLGMIDAFDEAKADFSGMSTEKNVPLSKVAHKCFVEVNEEGTEAAAATAVVRNSRCSRMEPRFCADHPFLFFIRHHKTNCILFCGRFSSP", "Fold Change": 2.0658, "Log (Fold Change)": 0.3151}
{"molecule": "Galectin-9 (protein, UniProt O00182 1-355, looked up) Galectin-9: MAFSGSQAPYLSPAVPFSGTIQGGLQDGLQITVNGTVLSSSGTRFAVNFQTGFSGNDIAFHFNPRFEDGGYVVCNTRQNGSWGPEERKTHMPFQKGMPFDLCFLVQSSDFKVMVNGILFVQYFHRVPFHRVDTISVNGSVQLSYISFQNPRTVPVQPAFSTVPFSQPVCFPPRPRGRRQKPPGVWPANPAPITQTVIHTVQSAPGQMFSTPAIPPMMYPHPAYPMPFITTILGGLYPSKSILLSGTVLPSAQRFHINLCSGNHIAFHLNPRFDENAVVRNTQIDNSWGSEERSLPRKMPFVRGQSFSVWILCEAHCLKVAVDGQHLFEYYHRLRNLPTINRLEVGGDIQLTHVQT", "Fold Change": 1.857, "Log (Fold Change)": 0.2687}
{"molecule": "Perilipin-3 (protein, UniProt O60664 2-434, looked up) Perilipin-3: SADGAEADGSTQVTVEEPVQQPSVVDRVASMPLISSTCDMVSAAYASTKESYPHIKTVCDAAEKGVRTLTAAAVSGAQPILSKLEPQIASASEYAHRGLDKLEENLPILQQPTEKVLADTKELVSSKVSGAQEMVSSAKDTVATQLSEAVDATRGAVQSGVDKTKSVVTGGVQSVMGSRLGQMVLSGVDTVLGKSEEWADNHLPLTDAELARIATSLDGFDVASVQQQRQEQSYFVRLGSLSERLRQHAYEHSLGKLRATKQRAQEALLQLSQVLSLMETVKQGVDQKLVEGQEKLHQMWLSWNQKQLQGPEKEPPKPEQVESRALTMFRDIAQQLQATCTSLGSSIQGLPTNVKDQVQQARRQVEDLQATFSSIHSFQDLSSSILAQSRERVASAREALDHMVEYVAQNTPVTWLVGPFAPGITEKAPEEKK", "Fold Change": 1.9528, "Log (Fold Change)": 0.2907}
{"molecule": "Copper transport protein ATOX1 (protein, UniProt O00244 1-68, looked up) Copper transport protein ATOX1: MPKHEFSVDMTCGGCAEAVSRVLNKLGGVKYDIDLPNKKVCIESEHSMDTLLATLKKTGKTVSYLGLE", "Fold Change": 1.845, "Log (Fold Change)": 0.266}
{"molecule": "Heat shock protein 105 kDa (protein, UniProt Q92598 2-858, looked up) Heat shock protein 105 kDa: SVVGLDVGSQSCYIAVARAGGIETIANEFSDRCTPSVISFGSKNRTIGVAAKNQQITHANNTVSNFKRFHGRAFNDPFIQKEKENLSYDLVPLKNGGVGIKVMYMGEEHLFSVEQITAMLLTKLKETAENSLKKPVTDCVISVPSFFTDAERRSVLDAAQIVGLNCLRLMNDMTAVALNYGIYKQDLPSLDEKPRIVVFVDMGHSAFQVSACAFNKGKLKVLGTAFDPFLGGKNFDEKLVEHFCAEFKTKYKLDAKSKIRALLRLYQECEKLKKLMSSNSTDLPLNIECFMNDKDVSGKMNRSQFEELCAELLQKIEVPLYSLLEQTHLKVEDVSAVEIVGGATRIPAVKERIAKFFGKDISTTLNADEAVARGCALQCAILSPAFKVREFSVTDAVPFPISLIWNHDSEDTEGVHEVFSRNHAAPFSKVLTFLRRGPFELEAFYSDPQGVPYPEAKIGRFVVQNVSAQKDGEKSRVKVKVRVNTHGIFTISTASMVEKVPTEENEMSSEADMECLNQRPPENPDTDKNVQQDNSEAGTQPQVQTDAQQTSQSPPSPELTSEENKIPDADKANEKKVDQPPEAKKPKIKVVNVELPIEANLVWQLGKDLLNMYIETEGKMIMQDKLEKERNDAKNAVEEYVYEFRDKLCGPYEKFICEQDHQNFLRLLTETEDWLYEEGEDQAKQAYVDKLEELMKIGTPVKVRFQEAEERPKMFEELGQRLQHYAKIAADFRNKDEKYNHIDESEMKKVEKSVNEVMEWMNNVMNAQAKKSLDQDPVVRAQEIKTKIKELNNTCEPVVTQPKPKIESPKLERTPNGPNIDKKEEDLEDKNNFGAEPPHQNGECYPNEKNSVNMDLD", "Fold Change": 1.783, "Log (Fold Change)": 0.2511}
{"molecule": "UDP-N-acetylglucosamine--peptide N-acetylglucosaminyltransferase 110 kDa subunit (protein, UniProt O15294 2-1046, looked up) UDP-N-acetylglucosamine--pepti …: ASSVGNVADSTEPTKRMLSFQGLAELAHREYQAGDFEAAERHCMQLWRQEPDNTGVLLLLSSIHFQCRRLDRSAHFSTLAIKQNPLLAEAYSNLGNVYKERGQLQEAIEHYRHALRLKPDFIDGYINLAAALVAAGDMEGAVQAYVSALQYNPDLYCVRSDLGNLLKALGRLEEAKACYLKAIETQPNFAVAWSNLGCVFNAQGEIWLAIHHFEKAVTLDPNFLDAYINLGNVLKEARIFDRAVAAYLRALSLSPNHAVVHGNLACVYYEQGLIDLAIDTYRRAIELQPHFPDAYCNLANALKEKGSVAEAEDCYNTALRLCPTHADSLNNLANIKREQGNIEEAVRLYRKALEVFPEFAAAHSNLASVLQQQGKLQEALMHYKEAIRISPTFADAYSNMGNTLKEMQDVQGALQCYTRAIQINPAFADAHSNLASIHKDSGNIPEAIASYRTALKLKPDFPDAYCNLAHCLQIVCDWTDYDERMKKLVSIVADQLEKNRLPSVHPHHSMLYPLSHGFRKAIAERHGNLCLDKINVLHKPPYEHPKDLKLSDGRLRVGYVSSDFGNHPTSHLMQSIPGMHNPDKFEVFCYALSPDDGTNFRVKVMAEANHFIDLSQIPCNGKAADRIHQDGIHILVNMNGYTKGARNELFALRPAPIQAMWLGYPGTSGALFMDYIITDQETSPAEVAEQYSEKLAYMPHTFFIGDHANMFPHLKKKAVIDFKSNGHIYDNRIVLNGIDLKAFLDSLPDVKIVKMKCPDGGDNADSSNTALNMPVIPMNTIAEAVIEMINRGQIQITINGFSISNGLATTQINNKAATGEEVPRTIIVTTRSQYGLPEDAIVYCNFNQLYKIDPSTLQMWANILKRVPNSVLWLLRFPAVGEPNIQQYAQNMGLPQNRIIFSPVAPKEEHVRRGQLADVCLDTPLCNGHTTGMDVLWAGTPMVTMPGETLASRVAASQLTCLGCLELIAKNRQEYEDIAVKLGTDLEYLKKVRGKVWKQRISSPLFNTKQYTMELERLYLQMWEHYAAGNKPDHMIKPVEVTESA", "Fold Change": 2.047, "Log (Fold Change)": 0.3112}
{"molecule": "Lysozyme C (protein, UniProt P61626 19-148, looked up) Lysozyme C: KVFERCELARTLKRLGMDGYRGISLANWMCLAKWESGYNTRATNYNAGDRSTDYGIFQINSRYWCNDGKTPGAVNACHLSCSALLQDNIADAVACAKRVVRDPQGIRAWVAWRNRCQNRDVRQYVQGCGV", "Fold Change": 2.204, "Log (Fold Change)": 0.3432}
